{
  "source": "patent US20110294728A1",
  "about": "“Antiviral Polypeptides” (priority 2008, published 2011)",
  "molecular_target": "monomeric p51 subunit of HIV-1 RT (HIV-1) (UniProt P03366)",
  "assay": "size-exclusion chromatography, 3.5 µM p51 with 20 µM FITC-PAW",
  "data": [
    {"substance": "monomeric p51 subunit of HIV-1 RT (from UniProt P03366 600-1039) (enzyme)", "values": [
      {"measurement": "percent of p51 dimeric", "value": 4.6, "unit": "%"}
    ]}
  ]
}
